# Data published in patent publication US20180185450A1 (Sanofi, published 2018).
# Numbered stars: 1 amine (or outer) side, 2 acyl side, 3 side chain; on linkers, the order of the positions; unused ones are H or OH. Square brackets hold non-standard residues; d marks the D form. Side chains are listed from the residue outwards. Ends that are not written are not given here. γGlu = O=C(O)[C@H](CCC(=O)[*:2])N[*:1]; X70 = not defined here; x53 = not defined here; Aib = CC(C)(N)C(=O)O
# Key:
# human GLP-1 receptor = human GLP-1 receptor (human, UniProt P43220 24-463); experiment: cell-based or functional assay
# human glucagon receptor = human glucagon receptor (human, UniProt P47871 26-477); experiment: cell-based or functional assay
# Sequence of human glucagon receptor (P47871 26-477): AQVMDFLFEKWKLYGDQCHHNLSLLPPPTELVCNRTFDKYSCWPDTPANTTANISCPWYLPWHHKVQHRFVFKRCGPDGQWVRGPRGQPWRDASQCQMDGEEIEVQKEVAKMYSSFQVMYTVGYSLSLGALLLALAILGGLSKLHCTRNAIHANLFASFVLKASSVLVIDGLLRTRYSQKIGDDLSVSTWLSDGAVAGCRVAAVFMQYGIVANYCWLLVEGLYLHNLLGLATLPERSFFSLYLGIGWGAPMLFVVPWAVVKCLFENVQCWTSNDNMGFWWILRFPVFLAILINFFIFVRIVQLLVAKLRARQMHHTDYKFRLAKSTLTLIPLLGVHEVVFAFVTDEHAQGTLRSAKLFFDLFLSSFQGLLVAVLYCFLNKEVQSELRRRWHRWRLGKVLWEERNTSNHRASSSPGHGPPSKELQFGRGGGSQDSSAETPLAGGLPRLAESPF
Binder,EC50 hGLP-1R (cAMP) (human GLP-1 receptor) [pM],EC50 hGlucagon-R (cAMP) (human glucagon receptor) [pM]
H[Aib]QGTFTSDLSKQK([γGlu-X70])DEQRAKDFIEWLKSGGPSSGAPPPS-NH2 (reading uncertain) [SEQ ID NO: 175],2.5,3.1
H[Aib]QGTFTSDLSKQK([γGlu-X70])DEQRAKEFIEWLKSGGPSSGAPPPS-NH2 (reading uncertain) [SEQ ID NO: 174],2.6,1.9
HXHGTFTSDLSKQKDSKAAQLFIEWLKAXGPSSGAPPPS (dSer at 2; K(γE-X70) at 14; dAla at 29; C-terminal NH2) [SEQ ID NO: 138],5.5,9.2
H[Aib]QGTFTSDLSKQK([γGlu-X70])DSRRAQDFIEWLKAGGPSSGAPPPS-NH2 (reading uncertain) [SEQ ID NO: 162],3.1,2.4
H[Aib]QGTFTSDLSKQK([γGlu-x53])ES[Aib]AAQDFIEWLKAGGPSSGAPPPS-NH2 (reading uncertain) [SEQ ID NO: 13],3.1,281
HXQGTFTSDLSKQKESRRAQDFIEWLKNGGPSSGAPPPSK (dSer at 2; K(γE-x53) at 14; C-terminal NH2) [SEQ ID NO: 111],8.1,2.5
HXQGTFTSDLSKQKESRRAQDFIEWLKNGGPSSGAPPPSK (dSer at 2; K(x53) at 14; C-terminal NH2) [SEQ ID NO: 112],33.6,21.1
HXQGTFTSDLSKQKDSRRAQDFIEWLKNGGPSSGAPPPS (dSer at 2; K(γE-x53) at 14; C-terminal NH(benzyl)) [SEQ ID NO: 99],15.9,2.6
HXQGTFTSDLSKQKESLAAQDFIEWLKAGGPSSGAPPPS (dSer at 2; K(γE-x53) at 14; C-terminal NH2) [SEQ ID NO: 150],6,35.5
HXQGTFTSDLSKQKDSRRAQDFIEWLKNGGPSSGAPPPS (dSer at 2; K(γE-x53) at 14; C-terminal N(diethyl)) [SEQ ID NO: 101],9.8,1.7
HXQGTFTSDLSKQKDSKRAXDFIEWLKAGGPSSGAPPPS (dSer at 2; K(γE-x70) at 14; Aib at 20; C-terminal NH2) [SEQ ID NO: 196],7.8,1.8
HXQGTFTSDLSKQKDSRRAQDFIEWLKNGGPSSGAPPPS (dSer at 2; K(γE-x53) at 14; C-terminal NH[(CH2-CH2-O)4-CH2-CH2-COOH]) [SEQ ID NO: 104],6.5,1.1
HXQGTFTSDLSKQKESRRAXDFIEWLKNGGPSSGAPPPS (dSer at 2; K(x53) at 14; Aib at 20; C-terminal NH2) [SEQ ID NO: 119],30.8,41.2
HXQGTFTSDLSKQKDSQAAQDFIEWLKRAGPSSGAPPPS (dSer at 2; K(γE-x53) at 14; C-terminal NH2) [SEQ ID NO: 124],3,8.4
HXQGTFTSDLSKQKESRRAQDFIEWLKRXGPSSGAPPPS (dSer at 2; K(γE-x53) at 14; dAla at 29; C-terminal NH2) [SEQ ID NO: 126],6.6,6.8
HXQGTFTSDLSKQKDSRRAQDFIEWLKNGGPSSGAPPPS (dSer at 2; K(γE-x53) at 14; C-terminal NH[(CH2)17-CH3]) [SEQ ID NO: 109],430,28.6
HXQGTFTSDLSKQKDSRRAQDFIEWLKNGGPSSGAPPPS (dSer at 2; K(γE-x53) at 14; C-terminal NH[(CH2)13-CH3]) [SEQ ID NO: 110],213,7.2
HXQGTFTSDLSKQKDSRRAQDFIEWLKNGGPSSGAPPPS (dSer at 2; K(γE-x53) at 14; C-terminal NH[(CH2-CH2-O)24-CH2-CH2-COOH]) [SEQ ID NO: 105],7.9,1
HXQGTFTSDLSKQKDSKAAQDFIEWLKAGGPSSGAPPPS (dSer at 2; K(γE-γE-x53) at 14; C-terminal NH2) [SEQ ID NO: 140],1.3,1.5
HXQGTFTSDLSKQKESRRAQDFIEWLKNGGPSSGAPPPK (dSer at 2; K(γE-x53) at 14; C-terminal NH2) [SEQ ID NO: 113],11.4,5.4
HXQGTFTSDLSKQKDSRRAQDFIEWLKNGGPSSGAPPPS (dSer at 2; K(γE-x53) at 14; C-terminal NH(tert.butyl)) [SEQ ID NO: 100],13.5,2
HXQGTFTSDLSKQKESRRAQDFIEWLKNGGPSSGAPPPK (dSer at 2; K(x53) at 14; C-terminal NH2) [SEQ ID NO: 114],62.3,31.1
HXQGTFTSDLSKQKDSRRAQDFIEWLKNGGPSSGAPPPS (dSer at 2; K(γE-x53) at 14; C-terminal NH[(CH2)12-OH]) [SEQ ID NO: 107],188,37.8

Binder,EC50 hGLP-1R (cAMP) (human GLP-1 receptor) [pM],EC50 hGlucagon-R (cAMP) (human glucagon receptor) [pM]
HXQGTFTSDLSKQKDSRRAQDFIEWLKNGGPSSGAPPPS (dSer at 2; K(γE-x53) at 14; C-terminal NH[(CH2)15-CH3]) [SEQ ID NO: 106],210,10.5
HXQGTFTSDLSKQKDSRRAQDFIEWLKSGGPSSGAPPPS (dSer at 2; K(γE-x53) at 14; C-terminal NH2) [SEQ ID NO: 128],6.2,1.6
HXQGTFTSDLSKQKESRRAQDFIEWLKNGGPSSGAPPPS (dSer at 2; K(γE-x53) at 14; C-terminal NH2) [SEQ ID NO: 116],6,3.6
HXQGTFTSDLSKQKESRRAQDFIEWLKSGGPSSGAPPPS (dSer at 2; K(γE-x53) at 14; C-terminal NH2) [SEQ ID NO: 129],14.8,4.1
HXQGTFTSDLSKQKDSRRAQDFIEWLKAXGPSSGAPPPS (dSer at 2; K(γE-X70) at 14; dAla at 29; C-terminal NH2) [SEQ ID NO: 161],5,2.4
HXQGTFTSDLSKQKDSKAAQDFIEWLKSGGPSSGAPPPS (dSer at 2; K(γE-x53) at 14; C-terminal NH2) [SEQ ID NO: 173],5.7,5.9
HXQGTFTSDLSKQKDSRRAXDFIEWLKNGGPSSGAPPPS (dSer at 2; K(γE-x53) at 14; Aib at 20; C-terminal NH2) [SEQ ID NO: 118],15.3,4.3
HXQGTFTSDLSKQKDSRRAQDFIEWLKNGGPSSGAPPPS (dSer at 2; K(γE-x53) at 14; C-terminal NH[(CH2)14-CH3]) [SEQ ID NO: 108],197,9
HXQGTFTSDLSKQKDSRRAQDFIEWLKNGGPSSGAPPPS (dSer at 2; K(γE-x53) at 14; C-terminal NH(CH2-CF3)) [SEQ ID NO: 103],10.1,1.7
HXQGTFTSDLSKQKDSRRAQDFIEWLKNGGPSSGAPPPS (dSer at 2; K(γE-x53) at 14; C-terminal N(morpholin)) [SEQ ID NO: 102],7.2,1.1
HXQGTFTSDLSKQKDSQAAQDFIEWLKRGGPSSGAPPPS (dSer at 2; K(γE-x53) at 14; C-terminal NH2) [SEQ ID NO: 123],2.6,9.7
HXQGTFTSDLSKQKESRRAQDFIEWLKRGGPSSGAPPPS (dSer at 2; K(γE-x53) at 14; C-terminal NH2) [SEQ ID NO: 127],14.7,9.4
HXQGTFTSDLSKQKESRAAXLFIEWLKNGGPSSGAPPPS (dSer at 2; K(x53) at 14; Aib at 20; C-terminal NH2) [SEQ ID NO: 122],24.9,156
HXQGTFTSDLSKQKESXAAQDFIEWLKAGGPSSGAPPPS (dSer at 2; K(γE-x53) at 14; Aib at 17; C-terminal NH2) [SEQ ID NO: 14],4.6,94.7
HXQGTFTSDLSKQKESRAAXLFIEWLKNGGPSSGAPPPS (dSer at 2; K(γE-x53) at 14; Aib at 20; C-terminal NH2) [SEQ ID NO: 121],6.1,23.7
HXQGTFTSDLSKQKDSKAAQDFIEWLKAGGPSSGAPPPS (dSer at 2; K(γE-X95) at 14; C-terminal NH2) [SEQ ID NO: 142],4.1,2.1
H[Aib]QGTFTSDLSKQK([γGlu-x53])ESRRAQDFIEWLKNGGPSSGAPPPS-NH2 (reading uncertain) [SEQ ID NO: 117],3.8,16.5
H[Aib]QGTFTSDLSKQK([γGlu-X70])DSQAAQDFIEWLKAGGPSSGAPPPS-NH2 (reading uncertain) [SEQ ID NO: 156],2.9,12.5
H[Aib]QGTFTSDLSKQK([γGlu-x53])DSQAAQDFIEWLKAGGPSSGAPPPS-NH2 (reading uncertain) [SEQ ID NO: 155],2.5,25.1
H[Aib]QGTFTSDLSKQK([γGlu-X70])DEQRAKEFIEWLKAGGPSSGAPPPS-NH2 (reading uncertain) [SEQ ID NO: 152],3.2,2.3
HXQGTFTSDLSKQKESXAAXLFIEWLKAGGPSSGAPPPS (dSer at 2; K(γE-x53) at 14; Aib at 17; Aib at 20; C-terminal NH2) [SEQ ID NO: 12],4.6,263
HXQGTFTSDLSKQKESXAAQLFIEWLKAGGPSSGAPPPS (dSer at 2; K(GABA-x70) at 14; Aib at 17; C-terminal NH2) [SEQ ID NO: 131],9.1,24.9
HXQGTFTSDLSKQKESXAAQLFIEWLKAGGPSSGAPPPS (dSer at 2; K(γE-x53) at 14; Aib at 17; C-terminal NH2) [SEQ ID NO: 15],6.6,176
